Patent US5422095A, “Low molecular weight polysaccharide complexes for radiation diagnosis” (Nihon Medi-Physics Co., Ltd., priority 1991, dated 1995)

Key:
[1] = Relaxivity of GPEN-DTES-Gd and GTRI-DTES-Gd, proton relaxation time by 6.35T NMR (in vitro test, Test 1); format: physicochemical; details: for R1 (relaxivity on T1): 24° to 26° C., calculated from relaxation times
Protocol: Relaxivity of GPEN-DTES-Gd and GTRI-DTES-Gd (in vitro test)
An appropriate amount of GPEN-DTES-Gd and GTRI-DTES-Gd were dissolved in distilled water. The relation to water proton exposed to these compounds was determined as a proton relaxation time (T1 and T2, msec) at room temperature (24° to 26° C.) using NMR (6.35T, manufactured by Nihondenshi K. K., Japan).
GPEN-DTES-Gd (2.3 mM) shortened remarkably the T1 value of water about 60 times and the T2 value of water 85 times. And GTRI-DTES-Gd (2.9 mM) shortened remarkably the T1 value of water about 70 times and the T2 value about 85 times. The relaxivity on T1 and T2 [each R1 and R2, (mM.S)^-1 ] were calculated based on the values in Tables 1 and 2.

[2] = DTPA-Gd lower than Gd itself; cited from earlier work
[3] = in vivo; cited from earlier work
blood = assay: Relaxation time of GPEN-DTES-Gd in blood in mouse after intravenous administration (ex vivo test, Test 2); design: species or system ICR female mouse; details: 0.025 mmol/kg in terms of Gd, 15 minutes after administration
Protocol: Relaxation time of GPEN-DTES-Gd in blood in mouse after intravenous administration (ex vivo test)
GPEN-DTES-Gd (Gd concentration: 75 mM) (0.025 mmol/kg in terms of Gd) was administered to a thiopental anesthetized ICR female mouse (body weight: 44 g) through the tail vein. At 15 minutes after administration, the blood was taken from the aorta descendence, and the relaxation time (T1, msec) of the blood at room temperature (24° to 26° C.) was determined with a 6.35T NMR apparatus (manufactured by Nihondenshi K. K., Japan).
As a control, blood was taken from the aorta descendence of a thiopental anesthetized ICR female mouse (body weight: 55 g) and, according to the same manner, the relaxation time was determined.

heart = assay: Contrast enhancement of the heart in rat at 1 hour after intravenous administration, MRI (in vivo test, Test 3); design: species or system Sprague-Dawley female rat; details: 1 hour after i.v. administration, 0.094 mmol/kg Gd vs 0.1 mmol/kg DTPA-Gd, 1.5T, T1 weighted spin echo
Protocol: Contrast enhancement of the heart in rat at 1 hour after intravenously administration of GPEN-DTES-Gd (in vivo test)
A solution of GPEN-DTES-Gd (Gd concentration: 75.1 mM) (0.094 mmol/kg in terms of Gd) was administered to a thiopental anesthetized Sprague-Dawley female rat (214 g, 9-weeks old) through a cannula fixed to femoral vein. At 1 hour after administration, the animal was sacrificed by administration of pentobarbital solution (1 ml) through the above cannula, fixed at prone position in the magnetic field of a MRI spectrometer. MRI measurement (transverse sectional view) of the chest region including the heart was carried out.
As a control, DTPA-Gd (MAGNEVIST®) was administered to a Sprague-Dawleyfemale rat (body weight: 204 g, 9-weeks old) through a cannula fixed at femoral vein (0.1 mmol/kg) and the measurement (transverse sectional view) of the chest region including the heart was carried out as described above.
The apparatus was SIGMA (manufactured by GE, U.S.A.) with magnetic field intensity of 1.5T and, as an imaging coil, a 26 cm .phi.bird-cage type head QD coil was used. Imaging was carried out according to spin echo method of T1 weighted (TR/TE, 600/30 msec) under the condition of 10 mm in slice thickness, a resolution of 256×128.

[4] = 2.3 mM in distilled water, 6.35T, room temperature (24° to 26° C.)

| Molecule | R1 (relaxivity on T1) ([1]; water, 6.35T) | relaxivity relative to Gd itself [2] | excretion into the urine (in words) [3] | Shortening of the T1 value of water ([1]; 2.3 mM) | Shortening of the T2 value of water ([1]; 2.3 mM) [times] | T1 relaxation time [1, 4] [ms] | T2 relaxation time [1, 4] [ms] | in vitro relaxation effect ([1]; in words, compared with DTPA-Gd) | T1 relaxivity in water ([1]; magnetic field intensity 6.35T, 25° C.) | T1 relaxivity relative to DTPA-Gd ([1]; water, 6.35T, 25° C.) | T1 relaxation time effect in blood compared with control mouse (blood) | T1 in blood (blood; tail vein, 6.35T, 24° to 26° C.) [ms] | MRI signal intensity / contrast effect in the heart relative to DTPA-Gd (MAGNEVIST®) (heart) |
| --- | --- | --- | --- | --- | --- | --- | --- | --- | --- | --- | --- | --- | --- |
| O=C([O-])CN(CCN(CC(=O)[O-])CC(=O)O)CCN(CC(=O)[O-])CC(=O)O.[Gd+3] [DTPA-Gd, (Diethylenetriaminepentaacetic acid)gadolinate] | 3.9 (mM · S)^-1 | about 1/2 | rapidly excreted into the urine after administration | – | – | – | – | – | – | – | – | – | – |
| (galactosamino-pentamer)-[1-(p-isothiocyanatebenzyl)-diethylenetriaminepentaacetic acid]gadolinate [GPEN-DTES-Gd] | 7.6 (mM · S)^-1 | – | – | about 60 times | 85 | 55 | 26 | predominantly higher than that of DTPA-Gd | 7.6 (mM.S)^-1 | about two | about 2.3 times | 769 | about 1.8 times |
